Data from patent publication US20260242497A1 (VIAL HEALTH TECHNOLOGY, published 2026).
“And” between values parts separate entries of the source, which are not always exact repeats. Equal entries are not always repeated.

T1: TL1A (antigen of Examples 1 and 2, species not stated) (UniProt O95150 57-251, limits assumed)
T1 construct: also called recombinant purified antigen; TNFSF15
T1 sequence (looked up): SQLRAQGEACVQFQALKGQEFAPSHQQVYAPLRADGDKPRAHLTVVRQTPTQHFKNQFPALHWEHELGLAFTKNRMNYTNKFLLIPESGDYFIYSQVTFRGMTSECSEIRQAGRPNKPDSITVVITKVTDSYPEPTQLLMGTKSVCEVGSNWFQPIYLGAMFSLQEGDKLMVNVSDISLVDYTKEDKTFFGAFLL

T2: biotinylated recombinant human TL1A (human, UniProt O95150 57-251, limits assumed, biotinylated (sites not given))
T2 sequence: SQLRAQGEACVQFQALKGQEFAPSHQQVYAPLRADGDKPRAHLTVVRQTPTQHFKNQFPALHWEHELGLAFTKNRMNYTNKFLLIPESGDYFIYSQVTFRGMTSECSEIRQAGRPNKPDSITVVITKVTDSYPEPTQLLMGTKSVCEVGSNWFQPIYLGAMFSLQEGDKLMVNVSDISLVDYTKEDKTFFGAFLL


Assays:
[1] = target: T1, TL1A (antigen of Examples 1 and 2, …); test: SPR, Biacore 8K, Protein A chip, antibody captured, antigen as analyte
Description: (§1) To perform SPR analysis using the Biacore 8K and Protein A Chip, the chip was equilibrated with Running Buffer (1×HBS-EP+). A solution of the capture ligand (0.35 μg/mL antibody) was prepared in Running Buffer and injected over the chip surface at a flow rate of 10 μL/min for 30 sec until a stable capture level of about 210-470 RU was achieved, followed by washing to remove excess ligand. For sample analysis, analyte samples were prepared in Running Buffer and injected over the chip surface at a flow rate of 30 μL/min for association (180 seconds) and dissociation (3600 seconds). The chip surface was regenerated between sample injections using a regeneration buffer such as 10 mM Gly-HCl, pH 1.5 at a flow rate of 30 μL/min. Sensorgram data was analyzed to determine binding kinetics and affinity, and the steps were repeated for additional samples as needed. The chip was thoroughly washed and regenerated after the experiment, and stored according to manufacturer's recommendations. The data was analyzed using Biacore evaluation software to calculate kinetic parameters for observed interactions.

human FcRn [2] = target: T3, human FcRn (human, UniProt P55899 24-297; P61769 21-119); test: SPR, Biacore 8K, CM5 chip, antibody immobilised, human FcRn as analyte, pH 6.0, steady-state affinity fit
T3 construct: also called neonatal Fc receptor
Description: (§2) The 1×PBST running buffer was prepared at both pH 6.0 and pH 7.4. Kinetic measurements were obtained for association and dissociation times of 60 and 90 seconds, respectively, at a flow rate of 30 μL/min. The CM5 chips were regenerated with 1×PBS (pH 7.4). Kinetic parameters for the concentration series at both pHs were fit to a steady state affinity model and averaged using the Biacore Evaluation Software. Each concentration series was fit independently to obtain the average rates and binding affinities.

[3] = target: T2, biotinylated recombinant human TL1A; test: competition ELISA, blocks biotinylated human TL1A (3.5 nM) binding to coated DR3/Fc
Description: (§3) Plates were coated with 4 g/mL of DR3/Fc or 1 g/mL of DcR3/Fc by adding 100 μL per well, and were incubated overnight at 4° C. 1×PBST was added at 200 μL per well, and after a 10-second incubation, the liquid was poured out and the plate was pat dried on blotting paper. This process was repeated three times. The plates were then blocked with 2% BSA in 1×PBST at 200 μL per well for 2 hours at room temperature (RT), followed by a similar washing step. […] This mixture was then added to the DR3/Fc or DcR3/Fc coated wells and incubated at RT for 1 hour. Further washing steps were performed, followed by the addition of a secondary antibody at 100 μL per well, which was incubated at RT for 0.5 hours. Additional washing steps were conducted, and TMB was added to each well at 100 μL and incubated at RT for 15 minutes. The reaction was stopped with 100 μL of 2M HCl stop solution per well, and the plates were read with a microplate reader at 450 nm. For buffer preparation, coating buffer consisted of 1×PBS, washing buffer was 0.05% tween-20 in 1×PBS, blocking buffer was 1% BSA in 1×PBST, and both test antibody dilution buffer and secondary antibody dilution buffer were prepared using blocking buffer.

human FcRn [4] = target: T3, human FcRn; test: SPR, Biacore 8K, CM5 chip, antibody immobilised, human FcRn as analyte, pH 6.0
Description: as §2
SPR analysis was performed using a Bioacore 8K instrument and a CM5 with the antibody immobilized at 10 g/mL concentration, as above.

[5] = target: T2, biotinylated recombinant human TL1A; test: competition ELISA, blocks biotinylated human TL1A (3.5 nM) binding to coated DcR3/Fc
Description: as §3

[6] = target: T1, TL1A (antigen of Examples 1 and 2, …); test: SPR, Biacore 8K, Protein A chip, antibody captured, antigen as analyte (second line)
Description: as §1

[7] = target: T1, TL1A (antigen of Examples 1 and 2, …); test: BLI (Gator Bio), tagged antibody on Strep-Tactin XT probes, recombinant purified antigen as analyte, 25 C
Description: Materials utilized in the assay included K Buffer (Assay Buffer) containing 0.02% BSA and 0.002% Tween-20 in PBS, pH 7.4, sourced from Gator Bio, Regen Buffer comprising 10 mM Glycine, pH 1.7, from Gator Bio, and Strep-Tactin XT probes. The protocol involved preparing samples of interest by diluting them in Assay Buffer, then performing analyte dilution series by diluting recombinant purified antigen into assay buffer to the correct target concentration. Samples were loaded into a sample plate and positioned in the plate positions on the BLI device. The assay was conducted in a temperature-controlled environment at 25° C. with shaking conditions set to 1000 rpm, recording data at a frequency of 5 Hz. Protocol cycles included Initial Baseline, Sample Loading, Baseline, Second Baseline, Association, and Dissociation steps. Probes were regenerated after each cycle following a recommended protocol of regeneration and neutralization. This cycle was repeated for every subsequent analyte concentration, typically ranging from 4 to 6 concentrations.

human FcRn [8] = target: T3, human FcRn; test: SPR, Biacore 8K, CM5 chip, FcRn, pH 6.0
Description: FcRn binding kinetics at pH 6.0 and pH 7.4 were measured using a Biacore® 8K instrument (Cytiva) with a CM5 chip.

[9] = target: T1, TL1A (antigen of Examples 1 and 2, …); test: cell-based or functional assay

Kd [1] [nM] | Kd (human FcRn [2]) | IC50 [3] [nM] | Kd (human FcRn [4]) | IC50 [5] [nM] | Fold Increase (FI) relative to RVT-3101 (human FcRn [2]) [fold] | Binder | also measured
< 0.0256 | 2430 nM and 2240 nM | 0.92 to 1.01 | 2430 nM and 2240 nM | 1.2 to 1.51 |  | AB_TL1A_02_004 (antibody, human IgG1, kappa) heavy: QVQLVQSGAEVKKPGASVKVSCKASGYDFTYYGISWVRQAPGQGLEWMGWISPYNGNTHYAQKLQGRVTMTTDTSTRTAYMELRSLRSDDTAVYYCARENYYGSGAYRGGMDVWGQGTTVTVSSASTKGPSVFPLAPSSKSTSGGTAALGCLVKDYFPEPVTVSWNSGALTSGVHTFPAVLQSSGLYSLSSVVTVPSSSLGTQTYICNVNHKPSNTKVDKKVEPKSCDKTHTCPPCPAPEAAGAPSVFLFPPKPKDTLMISRTPEVTCVVVDVSHEDPEVKFNWYVDGVEVHNAKTKPREEQYNSTYRVVSVLTVLHQDWLNGKEYKCKVSNKALPAPIEKTISKAKGQPREPQVYTLPPSREEMTKNQVSLTCLVKGFYPSDIAVEWESNGQPENNYKTTPPVLDSDGSFFLYSKLTVDKSRWQQGNVFSCSVMHEALHNHYTQKSLSLSPG light: not shown | Kd [6]: < 0.0469 nM
 |  |  |  |  |  | AB_TL1A_02_004 with a C-terminal fused assay tag (prokaryotic in vitro translation, BLI of Example 1) (antibody, human IgG1, kappa) heavy: QVQLVQSGAEVKKPGASVKVSCKASGYDFTYYGISWVRQAPGQGLEWMGWISPYNGNTHYAQKLQGRVTMTTDTSTRTAYMELRSLRSDDTAVYYCARENYYGSGAYRGGMDVWGQGTTVTVSSASTKGPSVFPLAPSSKSTSGGTAALGCLVKDYFPEPVTVSWNSGALTSGVHTFPAVLQSSGLYSLSSVVTVPSSSLGTQTYICNVNHKPSNTKVDKKVEPKSCDKTHTCPPCPAPEAAGAPSVFLFPPKPKDTLMISRTPEVTCVVVDVSHEDPEVKFNWYVDGVEVHNAKTKPREEQYNSTYRVVSVLTVLHQDWLNGKEYKCKVSNKALPAPIEKTISKAKGQPREPQVYTLPPSREEMTKNQVSLTCLVKGFYPSDIAVEWESNGQPENNYKTTPPVLDSDGSFFLYSKLTVDKSRWQQGNVFSCSVMHEALHNHYTQKSLSLSPG light: not shown | Kd [7]: 5.17 nM and 5 nM; kon [7]: 380000 M⁻¹ s⁻¹
 | 132 nM |  |  |  | 18.5 | AB_TL1A_02_004_HL4 (antibody, human IgG1, kappa, built from the name and the HLE mutation column) heavy: QVQLVQSGAEVKKPGASVKVSCKASGYDFTYYGISWVRQAPGQGLEWMGWISPYNGNTHYAQKLQGRVTMTTDTSTRTAYMELRSLRSDDTAVYYCARENYYGSGAYRGGMDVWGQGTTVTVSSASTKGPSVFPLAPSSKSTSGGTAALGCLVKDYFPEPVTVSWNSGALTSGVHTFPAVLQSSGLYSLSSVVTVPSSSLGTQTYICNVNHKPSNTKVDKKVEPKSCDKTHTCPPCPAPEAAGAPSVFLFPPKPKDTLMISRTPEVTCVVVDVSHEDPEVKFNWYVDGVEVHNAKTKPREEQYNSTYRVVSVLTVLHQDWLNGKEYKCKVSNKALPAPIEKTISKAKGQPREPQVYTLPPSREEMTKNQVSLTCLVKGFYPSDIAVEWESNGQPENNYKTTPPVLDSDGSFFLYSKLTVDKSRWQQGNVFSCSVMHEALKFHYTQKSLSLSPG light: not shown | 
 | 36 nM and 43.3 nM |  | 36 nM and 43.3 nM |  |  | AB_TL1A_02_004_HL9 (antibody, human IgG1, kappa, built from the name and the HLE mutation column) heavy: QVQLVQSGAEVKKPGASVKVSCKASGYDFTYYGISWVRQAPGQGLEWMGWISPYNGNTHYAQKLQGRVTMTTDTSTRTAYMELRSLRSDDTAVYYCARENYYGSGAYRGGMDVWGQGTTVTVSSASTKGPSVFPLAPSSKSTSGGTAALGCLVKDYFPEPVTVSWNSGALTSGVHTFPAVLQSSGLYSLSSVVTVPSSSLGTQTYICNVNHKPSNTKVDKKVEPKSCDKTHTCPPCPAPEAAGAPSVFLFPPKPKDTLMISRTPEVTCVVVDVSHEDPEVKFNWYVDGVEVHNAKTKPREEQYNSTYRVVSVLTVLHRDWLNGKEYKCKVSNKALPAPIEKTISKAKGQPREPQVYTLPPSREEMTKNQVSLTCLVKGFYPSDIAVEWESNGQPENNYKTTPPVLDSDGSFFLYSKLTVDKSRWQQGNVFSCSVLHEALKFHYTQKSLSLSPG light: not shown | 
< 0.0262 |  | 0.58 | 159 nM and 190 nM | 1.3 |  | AB_TL1A_02_004_HL2 (antibody, human IgG1, kappa, HLE mutations M428L, N434S) heavy: QVQLVQSGAEVKKPGASVKVSCKASGYDFTYYGISWVRQAPGQGLEWMGWISPYNGNTHYAQKLQGRVTMTTDTSTRTAYMELRSLRSDDTAVYYCARENYYGSGAYRGGMDVWGQGTTVTVSSASTKGPSVFPLAPSSKSTSGGTAALGCLVKDYFPEPVTVSWNSGALTSGVHTFPAVLQSSGLYSLSSVVTVPSSSLGTQTYICNVNHKPSNTKVDKKVEPKSCDKTHTCPPCPAPEAAGAPSVFLFPPKPKDTLMISRTPEVTCVVVDVSHEDPEVKFNWYVDGVEVHNAKTKPREEQYNSTYRVVSVLTVLHQDWLNGKEYKCKVSNKALPAPIEKTISKAKGQPREPQVYTLPPSREEMTKNQVSLTCLVKGFYPSDIAVEWESNGQPENNYKTTPPVLDSDGSFFLYSKLTVDKSRWQQGNVFSCSVLHEALHSHYTQKSLSLSPG light: not shown | Kd (human FcRn [8]): 159 nM and 190 nM; IC50 (nM), inhibition of TL1A-induced apoptosis of TF-1 cells (Caspase-Glo 3/7) [9]: 0.87 nM; max inhibition of TL1A-induced apoptosis of TF-1 cells [9]: 95%
 | 2440 nM and 2450 nM and 2460 nM |  | 2440 nM and 2450 nM and 2460 nM |  | 1 | RVT-3101 (antibody, human IgG1, kappa, Comparator anti-TL1A antibody, no HLE mutation; also called RVT-3101 (Roche); anti-TL1A comparator antibody) heavy: QVQLVQSGAEVKKPGASVKVSCKASGYDFTYYGISWVRQAPGQGLEWMGWISTYNGNTHYARMLQGRVTMTTDTSTRTAYMELRSLRSDDTAVYYCARENYYGSGAYRGGMDVWGQGTTVTVSSASTKGPSVFPLAPSSKSTSGGTAALGCLVKDYFPEPVTVSWNSGALTSGVHTFPAVLQSSGLYSLSSVVTVPSSSLGTQTYICNVNHKPSNTKVDKKVEPKSCDKTHTCPPCPAPEAAGAPSVFLFPPKPKDTLMISRTPEVTCVVVDVSHEDPEVKFNWYVDGVEVHNAKTKPREEQYNSTYRVVSVLTVLHQDWLNGKEYKCKVSNKALPAPIEKTISKAKGQPREPQVYTLPPSREEMTKNQVSLTCLVKGFYPSDIAVEWESNGQPENNYKTTPPVLDSDGSFFLYSKLTVDKSRWQQGNVFSCSVMHEALHNHYTQKSLSLSPG light: not shown | Fold Increase (FI) relative to Rituximab (human FcRn [4]): 0.9 fold
